From PMC3326312

B1: Cons scaffold, 20-mer RNA (mixed)
DNA 1: AGGATACTTAGTGCTATAATGAGCGGATCGCATGTTCACACAGGAAACAGCTGATTGCCC
DNA 2: GGGCAATCAGCTGTTTCCTGTGTGAACATGCGATCCGCTCATTATAGCACTAAGTATCCT
RNA: AUCACGAUAAAUGAGCGGAU
B2: Cons_up scaffold, 20-mer RNA (mixed)
DNA 1: CAGTGAATTCAGGATACTTAGTGCTATAATGAGCGGATCGCATGTTCACACAGGAAACAGCTGATTGCCC
DNA 2: GGGCAATCAGCTGTTTCCTGTGTGAACATGCGATCCGCTCATTATAGCACTAAGTATCCTGAATTCACTG
RNA: AUCACGAUAAAUGAGCGGAU

What was measured:
[1] = target: T1, core RNA polymerase (wild type) (Escherichia coli, UniProt P0A7Z4;P0A8V2;P0A8T7 1-329;1-1342;1-1407); test: KMnO4 footprinting
T1 sequence (P0A7Z4 whole entry, chain 1 of 2): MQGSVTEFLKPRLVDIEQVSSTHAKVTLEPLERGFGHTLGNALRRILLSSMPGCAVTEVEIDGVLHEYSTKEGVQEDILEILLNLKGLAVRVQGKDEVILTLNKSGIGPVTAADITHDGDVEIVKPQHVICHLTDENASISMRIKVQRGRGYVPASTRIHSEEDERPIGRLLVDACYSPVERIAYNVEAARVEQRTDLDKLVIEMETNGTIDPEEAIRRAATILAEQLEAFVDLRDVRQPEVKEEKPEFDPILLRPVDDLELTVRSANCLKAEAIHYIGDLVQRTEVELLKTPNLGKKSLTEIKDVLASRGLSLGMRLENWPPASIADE
T1 sequence (P0A8V2 whole entry, chain 2 of 2): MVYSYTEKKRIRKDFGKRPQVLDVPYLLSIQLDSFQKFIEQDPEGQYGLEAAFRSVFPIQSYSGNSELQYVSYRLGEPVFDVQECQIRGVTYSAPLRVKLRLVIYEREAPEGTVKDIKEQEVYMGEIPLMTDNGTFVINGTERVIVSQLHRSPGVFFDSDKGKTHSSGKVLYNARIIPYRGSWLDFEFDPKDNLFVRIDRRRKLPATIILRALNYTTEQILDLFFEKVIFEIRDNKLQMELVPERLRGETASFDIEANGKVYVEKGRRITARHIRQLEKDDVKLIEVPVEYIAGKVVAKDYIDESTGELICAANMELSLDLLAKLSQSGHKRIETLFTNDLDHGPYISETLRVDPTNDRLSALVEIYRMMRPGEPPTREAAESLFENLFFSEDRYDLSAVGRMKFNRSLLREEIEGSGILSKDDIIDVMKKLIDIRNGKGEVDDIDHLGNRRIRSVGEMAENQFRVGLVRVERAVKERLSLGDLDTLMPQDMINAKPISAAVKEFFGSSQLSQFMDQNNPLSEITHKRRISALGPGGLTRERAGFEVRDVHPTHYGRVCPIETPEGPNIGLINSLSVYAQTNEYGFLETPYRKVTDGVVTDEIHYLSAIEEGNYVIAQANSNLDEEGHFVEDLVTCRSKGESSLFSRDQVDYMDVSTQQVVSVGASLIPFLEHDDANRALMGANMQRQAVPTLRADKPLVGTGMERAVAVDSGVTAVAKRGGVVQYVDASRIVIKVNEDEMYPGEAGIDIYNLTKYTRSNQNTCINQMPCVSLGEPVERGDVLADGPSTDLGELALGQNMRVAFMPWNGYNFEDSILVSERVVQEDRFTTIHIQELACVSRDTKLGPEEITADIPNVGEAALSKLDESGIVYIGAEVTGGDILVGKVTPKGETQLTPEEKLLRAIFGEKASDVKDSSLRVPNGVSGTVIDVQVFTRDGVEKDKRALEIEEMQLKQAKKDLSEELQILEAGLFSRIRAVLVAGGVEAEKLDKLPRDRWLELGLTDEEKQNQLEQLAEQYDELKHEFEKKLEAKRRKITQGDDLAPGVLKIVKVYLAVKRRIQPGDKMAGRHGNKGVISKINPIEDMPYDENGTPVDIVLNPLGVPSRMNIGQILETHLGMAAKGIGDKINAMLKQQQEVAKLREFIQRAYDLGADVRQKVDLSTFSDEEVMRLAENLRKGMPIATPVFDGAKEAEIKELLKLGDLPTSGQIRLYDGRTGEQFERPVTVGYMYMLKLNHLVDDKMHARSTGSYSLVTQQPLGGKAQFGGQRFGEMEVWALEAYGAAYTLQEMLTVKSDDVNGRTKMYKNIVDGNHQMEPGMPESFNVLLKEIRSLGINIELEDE

[2] = target: T2, core RNA polymerase (wild type);sigma70 (Escherichia coli;Escherichia coli, UniProt P0A7Z4;P0A8V2;P0A8T7;P00579 1-329;1-1342;1-1407;1-613, |); test: KMnO4 footprinting
T2 sequence (P0A7Z4 whole entry, chain 1 of 3): as the sequence (P0A7Z4 whole entry, chain 1 of 2) above
T2 sequence (P0A8V2 whole entry, chain 2 of 3): as the sequence (P0A8V2 whole entry, chain 2 of 2) above
T2 sequence (P00579 whole entry, chain 4 of 3): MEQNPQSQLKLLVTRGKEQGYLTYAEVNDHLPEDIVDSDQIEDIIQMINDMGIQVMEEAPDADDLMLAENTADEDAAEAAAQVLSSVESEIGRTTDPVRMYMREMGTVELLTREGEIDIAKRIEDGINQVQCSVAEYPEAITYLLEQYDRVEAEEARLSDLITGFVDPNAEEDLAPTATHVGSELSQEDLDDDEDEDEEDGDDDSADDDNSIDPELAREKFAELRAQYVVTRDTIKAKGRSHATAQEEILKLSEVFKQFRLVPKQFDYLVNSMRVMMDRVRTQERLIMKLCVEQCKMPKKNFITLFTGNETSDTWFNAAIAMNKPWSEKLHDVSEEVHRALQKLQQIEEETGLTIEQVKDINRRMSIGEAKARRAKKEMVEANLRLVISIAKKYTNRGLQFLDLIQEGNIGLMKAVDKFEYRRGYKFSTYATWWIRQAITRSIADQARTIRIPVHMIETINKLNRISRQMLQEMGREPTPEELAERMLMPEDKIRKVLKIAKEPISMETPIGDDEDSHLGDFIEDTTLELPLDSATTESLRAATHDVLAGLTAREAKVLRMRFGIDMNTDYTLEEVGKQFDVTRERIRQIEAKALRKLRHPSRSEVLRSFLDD

[3] = target: T2, core RNA polymerase (wild type);sigma70; test: ExoIII footprinting
[4] = target: T1, core RNA polymerase (wild type); test: ExoIII footprinting
[5] = target: core RNA polymerase (wild type);sigma70 fragment 1-448 (Escherichia coli;Escherichia coli, UniProt P0A7Z4;P0A8V2;P0A8T7;P00579 1-329;1-1342;1-1407;1-448, |); test: ExoIII footprinting

Row | Binder | binding result [1] | binding result [2] | binding result [3] | binding result [4] | binding result [5]
1 | B1 | binds | binds | – | – | –
2 | B2 | – | – | binds | binds | binds
